The DeepSol protein solubility set

Assay: soluble on expression in E. coli; label from the status in PepcDB or PDB records

Row | Sequence | soluble on expression in E. coli
1 | GGFDGHTHSAGKINVGRFINPNDARKNPVPGLSGQVARTEKTRAQVGYNTPNTYAIGYRYAKLGYTTICEAAIPLLAARHTHEEFKEIPILDKMGLSLFGSNWQVMEYIRDKEPEKLAAYIAWGLKASRGYGVKIVNPGGGEAWGWGRNVSGLYDPVPNFDVTPAEILLGLAEANERLQLPHSIHVHCNNLGKPGNYATTIETMKLLEKVKPSRDRQALHVTHVQFNAYAGTSWRDFETGAPMVADYINGANHLTFDLGQVIFGPAVTMTADGPVEYANSRMLHEKWSNQDIELEDASGVVPLFYSPKSFVNAVQWAIGLELALLVKDPWKVMFTTDSPNGGSFVNYPEAFTYLMSAKRREEVISGFSKMALDRMVLPGIDRELDFYELAVMTRSTQSKMYSMPEKGNLKVGSDADIAIYDILPGQVDPSTEYAKVKKAFSAASYTLKSGEVVVKDG | not soluble
2 | GGGGGGMNLRRRGIVVSFHSNMVTVEDEETGERILCKLRGKFRLQNLKIYVGDRVEYTPDETGSGVIENVLHRKNLLTKPHVANVDQVILVVTVKMPETSTYIIDKFLVLAEKNELETVMVINKMDLYDEDDLRKVRELEEIYSGLYPIVKTSAKTGMGIEELKEYLKGKISTMAGLSGVGKSSLLNAINPGLKLRVSEVSEKLQRGRHTTTTAQLLKFDFGGYVVDTPGFANLEINDIEPEELKHYFKEFGDKQCFFSDCNHVDEPECGVKEAVENGEIAESRYENYVKMFYELLGRRKK | soluble
3 | GGLPIVGDIFRFLDNGRTGLYENYKEFSTELNMTRESNGVKVTINDVISDGRTLSITYSLESEQDLGDDPIILGGLDIMDAHGSSGSGKMTKVTEKKYVGMVTTTHHDSNKKDKVNFRWNIEGIEIPDRKKSIQGHWNFALTVKSMDSKERTIGGSSEKEGIKANMEKVAMSPVSFILYYNQEVSKGARKEWDSVDVELTVKDDLGNDYSGEGNGGSGNDPYNIRWSATFQKLNENATKLIVTPRVHLRVHTPENHGGVEYVNGKEKKIEVPNKEAKKKDIVLDDIVIDLKK | soluble
4 | GGTKTAAEAAAPAVHPVSGLQIVPVTVTGTSGRHVFRSELARTSAEQAKGLMFRTELGDEEGMIFLRNPPDMATFWMRNTVIPLDIIFVGLDRRVMNIAANAVPYDETPLPAAGPTLAVLEINGGLAARLGIKPGDKVEW | soluble
5 | GHHHHHHHHHHGLVPRGSHMYFQKARLIHAELPLLAPFKTSYGELKSKDFYIIELINEEGIHGYGELEAFPLPDYTEETLSSAILIIKEQLLPLLAQRKIRKPEEIQELFSWIQGNEMAKAAVELAVWDAFAKMEKRSLAKMIGATKESIKVGVSIGLQQNVETLLQLVNQYVDQGYERVKLKIAPNKDIQFVEAVRKSFPKLSLMADANSAYNREDFLLLKELDQYDLEMIEQPFGTKDFVDHAWLQKQLKTRICLDENIRSVKDVEQAHSIGSCRAINLKLARVGGMSSALKIAEYCALNEILVWCGGMLEAGVGRAHNIALAARNEFVFPGDISASNRFFAEDIVTPAFELNQGRLKVPTNEGIGVTLDLKVLKKYTKSTEEILLNKGWS | soluble
6 | GHMNAYLSDQPVRLSPLRDEQGNQPRFGLLLEPGRPGMHVGELPAQWLKGLARSHHLLLLRGFAAFADAESLTRYCHDFGEVMLWPFGAVLELVEQEGAEDHIFANNYVPLHWDGMYLETVPEFQVFHCVDAPGDSDGGRTTFSSTPAALQLADSSELELWRRASGRYQRSAAHYSSRSAAPIVERHPRREFPILRFCEPPVEGDASFINPSEFHYDGIAPEQRGELLASLRRCLYHPQAHYAHRWRSDDLVIADNLTLLHGREAFAHRAPRHLRRVHIHAEPALRNPHLQRD | soluble
7 | GHMNVAKREFIRGMMAHYRASLPPPEHSVVIHELQKRVLDIGMLAVNKAHVELFGSHVSGFCTPHSDADISLTYRNFSPWLQGMERVDEQNNKRMTRFGKEASAMGMEDVRYIRARIPVVQFTDGVTGIHCDVSIGNIGGVENSKILCAIRQVFPDFYGAYIHLVKAWGKAREVIAPERSTFNSFTVTTMALMVLQELGLLPVFSKPTGEFGELTVADAEMLLQEFKLPPIYDSLHDDDEKLGEAVFFCLQRFAEYYAKYDFSAGTVSLIHPRRHRTVYERVVRRHLELLGSRKRLEWEKHIAEHKEDGPLDENDFSASMQNETTQRPSNSPYVVEDFVNYVNCGRRVQASRVRHIQQEFNRLREMLIDKESELKFDEVFRESDTVP | soluble
8 | GHMTKLFSKVKESIEGIKMPSTLTINGKAPIVAYAELIAARIVNALAPNSIAIKLVDDKKAPAAKLDDATEDVFNKITSKFAAIFDNGDKEQVAKWVNLAQKELVIKNFAKLSQSLETLDSQLNLRTFILGGLKYSAADVACWGALRSNGMCGSIIKNKVDVNVSRWYTLLEMDPIFGEAHDFLSKSLLELKKSANVGKKKETHKANFE | soluble
9 | GHSMHHHHHHLGNKLSISDLKDIKNKKVLVRVDFNVPIENGIIKDTNRITATLPTINHLKKEGASKIILISHCGRPDGLRNEKYTLKPVAETLKGLLGEEVLFLNDCVGKEVEDKINAAKENSVILLENLRFHIEEEGKGVDANGNKVKANKEDVEKFQNDLTKLADVFINDAFGTAHRAHSSMVGVKLNVKASGFLMKKELEYFSKALENPQRPLLAILGGAKVSDKIQLIKNLLDKVDRMIIGGGMAYTFKKVLNNMKIGTSLFDEAGSKIVGEIMEKAKAKNVQIFLPVDFKIADNFDNNANTKFVTDEEGIPDNWMGLDAGPKSIENYKDVILTSKTVIWNGPQGVFEMPNFAKGSIECLNLVVEVTKKGAITIVGGGDTASLVEQQNKKNEISHVSTGGGASLELLEGKELPGVLALSNK | soluble
10 | GIDVIGKKMTLCQLYAKQNAVRPNVKANTKSGRKYLMEILKNDRLGARSIDSIKPSDAKEWAIRMSENGFAYSTINNYKRSLRASFYIAIQDDYVRKNPFDFQLNTVIDDDTIPKTVLTSEQEARLLDFAKSDTVYHKNYDEILILLKTGLRISELCGLTVSDLDFENHLISVDHQLLRNTELGYYIETPKTKSSERQIPMEATCQALKRTLAKRDDRKCVEIDGYSHFLFLNRKGYPKTSGDFDRILRNLIKKYNKYHEEKLPHITPHTLRHTFCTNCANAGMNPKALQYIMGHANITMTLNYYAHATYKFGYG | not soluble
11 | GIHMGKIKRRAITEHEKRALRHYFFQLQNRSGQQDLIEWFREKFGKDISQPSVSQILSSKYSYLDNTVEKPWDVKRNRPPKYPLLEAALFEWQVQQGDDATLSGETIKRAAAILWHKIPEYQDQPVPNFSNGWLEGFRKRHILH | soluble
12 | GKITFFEDRSFQGRCYECSSDCPNLQTYFSRCNSVRVDSGCWMLYERPNYQGHQYFLRRGEYPDYQQWMGFSDSIRSCRLIPHAGSHRMRLYEKEDHKGVMMELSEDCSCIQDRFHLSEVRSLQVLEGCWVLYEMPNYRGRQYLLRPQEYRRFQDWGSVDAKAGSLRRVVDLY | soluble
13 | GKVNIIVPQYVRCPDICHYETLIMKSLMIKLFQENSLDDVVFVTVEVDPWRGSLEEADMYIKESTASLGFTPPWIWVGGNMEPLETLYKQLGLSVQLDSSTGLIVHTAGFYIVDRNGILLYYVKVEDEGWKNPGKVADVLEYVVNDALSK | not soluble
14 | GLPARSSSISNTNRTGENPMITPIISSNLGLKHRVTLRKATLASLMQSLSGESSNRVMWNDRYDTLLIARDPREIKNAIEKSVTDFGGLENYKELTGGADPFALMTPVCGLSANNIFKLMTEKDVPIDPTSIEYLENTSFAEHVNTLDSHKNYVVIVNDGRLGHKFLIDLPALTQGPRTAYIIQSDLGGGALPAVRVEDWISRRGSDPVSLDELNQLLSKDFSKMPDDVQTRLLASILQIDKDPHKVDIKKLHLDGKLRFASHEYDFRQFQRNAQYVAGLG | soluble
15 | GLSAAQRQVVASTWKDIAGSDNGAGVGKECFTKFLSAHHDMAAVFGFSGASDPGVADLGAKVLAQIGVAVSHLGDEGKMVAEMKAVGVRHKGYGNKHIKAEYFEPLGASLLSAMEHRIGGKMNAAAKDAWAAAYADISGALISGLQS | soluble
16 | GLVPRGSHMYAELSPGTKKVYTQVRYLDDYHWEIEGSTITGIHKKSNVKVVIDVAKNREEADSLAGKDVNGIHIVAIPDNGVFYIKNGSFVLTYRYLKATLADINDHIVWSGFKVVEDNGKLVQEDVYEYLGAALVNHIKNNALAGQDYIFWQFYKCEECGKYVDIENLEAHLREHGIKLHEKSEEHYEVFELNFREGKVFDKFGGEVPMDKFSSEAREFIKEVLS | soluble
